Among the data in paper PMC5309781 are percent of the protein in the monomeric state and stoichiometry N values, retold here.

As usually defined, the stoichiometry N is a count of units in the complex or per binding partner.

Experiment [1] has as its target ZIKV NS1 β-ladder domain (NS1 172-352) T233A mutant (Zika virus, strain Suriname). As to the kind of experiment: AUC; sedimentation velocity, 2.95 mg/mL, 20 mM Hepes pH 7.4, 150 mM NaCl, 20 °C, 53,000 rpm, interference optics, continuous c(s) model in SEDFIT.
For experiment [2], the target named is ZIKV NS1 β-ladder domain (NS1 172-352), strain Suriname (Zika virus, strain Suriname). Described as above.

In experiment [1], “ZIKV NS1 β-ladder domain (NS1 172-352) T233A mutant (domain or fragment)” yielded a percent of the protein in the monomeric state of more than 49% and a stoichiometry N of 2.
For “ZIKV NS1 β-ladder domain (NS1 172-352), strain Suriname (domain or fragment)”, in experiment [2], the percent of the protein in the monomeric state came out at 7.8% and the stoichiometry N amounted to 2.
